Data as given in article PMC3485694 (Structure (London, England : 1993), 2012).

B1: human HisRS Δ507–509 (domain or fragment, UniProt P12081 1-506, looked up)
chain: MAERAALEELVKLQGERVRGLKQQKASAELIEEEVAKLLKLKAQLGPDESKQKFVLKTPKGTRDYSPRQMAVREKVFDVIIRCFKRHGAEVIDTPVFELKETLMGKYGEDSKLIYDLKDQGGELLSLRYDLTVPFARYLAMNKLTNIKRYHIAKVYRRDNPAMTRGRYREFYQCDFDIAGNFDPMIPDAECLKIMCEILSSLQIGDFLVKVNDRRILDGMFAICGVSDSKFRTICSSVDKLDKVSWEEVKNEMVGEKGLAPEVADRIGDYVQQHGGVSLVEQLLQDPKLSQNKQALEGLGDLKLLFEYLTLFGIDDKISFDLSLARGLDYYTGVIYEAVLLQTPAQAGEEPLGVGSVAAGGRYDGLVGMFDPKGRKVPCVGLSIGVERIFSIVEQRLEALEEKIRTTETQVLVASAQKKLLEERLKLVSELWDAGIKAELLYKKNPKLLNQLQYCEEAGIPLVAIIGEQELKDGVIKLRSVTSREEVDVRREDLVEEIKRRTGQPL
B2: human HisRS Δ1–53_507–509 (domain or fragment, UniProt P12081 54-506, looked up)
chain: FVLKTPKGTRDYSPRQMAVREKVFDVIIRCFKRHGAEVIDTPVFELKETLMGKYGEDSKLIYDLKDQGGELLSLRYDLTVPFARYLAMNKLTNIKRYHIAKVYRRDNPAMTRGRYREFYQCDFDIAGNFDPMIPDAECLKIMCEILSSLQIGDFLVKVNDRRILDGMFAICGVSDSKFRTICSSVDKLDKVSWEEVKNEMVGEKGLAPEVADRIGDYVQQHGGVSLVEQLLQDPKLSQNKQALEGLGDLKLLFEYLTLFGIDDKISFDLSLARGLDYYTGVIYEAVLLQTPAQAGEEPLGVGSVAAGGRYDGLVGMFDPKGRKVPCVGLSIGVERIFSIVEQRLEALEEKIRTTETQVLVASAQKKLLEERLKLVSELWDAGIKAELLYKKNPKLLNQLQYCEEAGIPLVAIIGEQELKDGVIKLRSVTSREEVDVRREDLVEEIKRRTGQPL

Target: the molecule itself
Assay: crystal structure

Protein	binding result	stoichiometry N
B1	binds	–
B2	–	2
